# Positions count from the first letter of the chain named.
# T1: Recombinant Bet v1 (major birch pollen allergen Bet v1) (birch, biotin (biotinylated rBet v1 in the flow cytometry and in the IgE-blocking ELISA; site not stated))
# T1 construct: Bet v1, major allergen of birch pollen (PR-10 family); codon-optimized synthetic gene in pET29b; PDB 4A81 was the Bet v1 model fitted into the cryo-EM map; One molecule for the plain and the biotinylated protein: same construct; also called rBet v1; biotinylated rBet v1
# T1 chain: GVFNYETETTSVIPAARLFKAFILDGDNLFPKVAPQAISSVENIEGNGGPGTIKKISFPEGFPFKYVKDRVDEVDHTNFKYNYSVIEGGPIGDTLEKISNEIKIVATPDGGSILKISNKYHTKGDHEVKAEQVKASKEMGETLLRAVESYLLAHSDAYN
# B1: CAlleR 11 (anti-Bet v1 chimeric allergen receptor with the scFv of mAb 11, CD28 and CD3ζ domains) (other)
# VH: EVELLESGGGLVQPGGSLRLSCVGSGFTFPSYAMTWVRQAPGKGLEWVSAISGGGENSGGSTYYADSVKGRFTISRDNSKNTLFLQMSSLRAEDTAVYYCTREPVSWAFGSGTEYFDYWGQGTLVTVSS
# VL: QSVLTQPPSASGTPGQRVTISCSGSSSNIGSNTVTWYHQLPGTAPKLLIYNNHRRPSGVPDRFSGSKSGTAASLGISGLQSEDEAAYYCATWDDSLKGWVFGGGTKLTVL
# notes: scFv derived from mAb 11 (variable domains as in m5; GenBank within PZ143166-PZ143179); CD28 hinge, transmembrane and intracellular (costimulatory) domains; CD3ζ intracellular signaling domain; Second-generation CAR design in pCDH-EF1-FHC (Addgene 64874), as in Muller et al., 2021a; source: primary human T cells, lentivirally transduced, on cells
# B2: Fab08 (Fab of mAb 8) (Fab, V domains shown)
# VH: EVQLVQSGAEVKKPGDSLKISCKGSGYSFSNFWIGWVRQMPGKGLELMGIVYPGDSDTKYRPSFLGQVTISADKSIATAFLQWSRLTASDTAIYYCARLGATYAGADFWGQGTLVTVSS
# VL: DIQMTQSPSSLSASVGDRVTITCRASQTIVTYLNWYQQKPGKAPKLLIYAASNLQSGVPSRFSGSGSGTDFTLTISSLQPEDFAIYYCQQSYAAFGEGTKVEIK
# notes: heavy variable domain as the heavy chain of m3 (mAb 8, IGHV5-51); constant part of the Fab heavy chain; as the light chain of m3 (mAb 8, IGKV1-39); The production of the Fabs is not described
# B3: CAlleR 8 (anti-Bet v1 chimeric allergen receptor with the scFv of mAb 8, CD28 and CD3ζ domains) (other)
# VH: B2 VH
# VL: B2 VL
# notes: scFv derived from mAb 8 (variable domains as in m3; GenBank within PZ143166-PZ143179); CD28 hinge, transmembrane and intracellular (costimulatory) domains; CD3ζ intracellular signaling domain; Second-generation CAR design in pCDH-EF1-FHC (Addgene 64874), as in Muller et al., 2021a; The murine CAlleR 8 (mouse CD28 and CD3ζ domains) is another construct and has no row; source: primary human T …
# B4: CAlleR 5 (anti-Bet v1 chimeric allergen receptor with the scFv of mAb 5, CD28 and CD3ζ domains) (other)
# VH: EVQLVQSGAEVKKPGESLNISCNGSGYNFTKYWIAWVRQMPGKGLEWMGIIYPGDSDTKYRPSFQGQVTISADKSITTAYLQWSRLKVSDTAIYYCARLGATYGGADYWGQGTLVTVSS
# VL: B2 VL with R24Q, T28S, T31N, N53S, I85T, K104T
# notes: scFv derived from mAb 5 (variable domains as in m2; GenBank within PZ143166-PZ143179); CD28 hinge, transmembrane and intracellular (costimulatory) domains; CD3ζ intracellular signaling domain; Second-generation CAR design in pCDH-EF1-FHC (Addgene 64874), as in Muller et al., 2021a; source: primary human T cells, lentivirally transduced, on cells
# B5: Fab10 (Fab of mAb 10) (Fab, V domains shown)
# VH: EVQLVESGGGLVQPGGSLRLSCTASGFTFSSYMTHWVRQAPGKGLEWVSHISGDGTNTTYADTVKGRFFTSRDNVKNTLFLQMDSLRAEDTAVYFCARGSWYTTGWHRNYYFGMDVWGQGTTVTVSS
# VL: DIVMTQSPLSLPVTPGEPASISCRSSQSLLHSNGYNYLDWYLQKPGRSPQLLIYLGSHRASGVPDRFSGDGSGTDFTLKISRVEAEDVGVYYCMQVLQTPSFGGGTKVEIK
# notes: heavy variable domain as the heavy chain of m4 (mAb 10); constant part of the Fab heavy chain; as the light chain of m4 (mAb 10); The production of the Fabs is not described
# B6: CAlleR 10 (anti-Bet v1 chimeric allergen receptor with the scFv of mAb 10, CD28 and CD3ζ domains) (other)
# VH: B5 VH
# VL: B5 VL
# notes: scFv derived from mAb 10 (variable domains as in m4; GenBank within PZ143166-PZ143179); CD28 hinge, transmembrane and intracellular (costimulatory) domains; CD3ζ intracellular signaling domain; Second-generation CAR design in pCDH-EF1-FHC (Addgene 64874), as in Muller et al., 2021a; source: primary human T cells, lentivirally transduced, on cells
# How the values were obtained:
# [1] = biological target: Recombinant Bet v1 (major birch pollen allergen Bet v1) (birch) (UniProt P15494); assay: ELISA
# [2] = biological target: Recombinant Bet v1 (major birch pollen allergen Bet v1) (birch) (UniProt P15494); assay: BLI
# [3] = biological target: T1, Recombinant Bet v1 (major birch pollen …); assay: flow cytometry on cells; transduced primary human T cells stained with biotinylated rBet v1 (1 μg/ml) and streptavidin-PE, 30 min at 4°C; mCherry reporter; conditions: one partner purified
# [4] = biological target: T1, Recombinant Bet v1 (major birch pollen …); assay: cryo-EM structure; Bet v1 complexed with threefold molar excess of Fab08 and Fab10; reconstruction at 4.8 Å, Cα positioning; conditions: both partners purified
Molecule,EC50 [1] [ng/mL],binding result [3],further results
mAb 10 (human anti-Bet v1 IgG monoclonal antibody) (from UniProt P01857),7.26,,
eB20 (human anti-Bet v1 antibody from an IgE clone) (from UniProt P01857),8.89,,
mAb 11 (human anti-Bet v1 IgG monoclonal antibody) (from UniProt P01857),4.26,,Kd [2]: 3.61 nM
B1,,binds,
B2,,,binding result [4]: binds
B3,,binds,
B4,,binds,
B5,,,binding result [4]: binds
B6,,binds,

# — publication PMC13335422 (The Journal of Experimental Medicine, 2026)
